Laboratory results taken from publication PMC6078998, “Functional activity of the H3.3 histone chaperone complex HIRA requires trimerization of the HIRA subunit” (Nature Communications, 2018).

How the values were obtained:
[1] = molecular target: the molecule itself; assay: AUC; sedimentation equilibrium of single purified proteins, 4 °C, 280 nm, 2–3 concentrations, multiple speeds; 20 mM Tris pH 8.0, 300 mM NaCl, 1 mM TCEP; Heteroanalysis and SEDPHAT; the constant of HIRA is of a monomer–trimer equilibrium model
[2] = molecular target: T1, CABIN1 full length (FL), recombinant (UniProt Q9Y6J0 1-2220); assay: SEC; Superose 6 10/300 GL fractionation; ~100 μM HIRA fragment incubated with ~20 μM CABIN1 FL in 500 μl, 30 min at 4 °C; 20 mM Tris pH 8.0, 300 mM NaCl, 1 mM TCEP; conditions: both partners purified
T1 construct: theoretical molecular weight printed as 246,352 Da; the discussion says 2200 amino-acid residues; Cloned into pFastBac HTA; No removal of the His tag is described; also called CABIN1 FL; FL His-CABIN1
T1 sequence (Q9Y6J0 whole entry, the tested form may be a part): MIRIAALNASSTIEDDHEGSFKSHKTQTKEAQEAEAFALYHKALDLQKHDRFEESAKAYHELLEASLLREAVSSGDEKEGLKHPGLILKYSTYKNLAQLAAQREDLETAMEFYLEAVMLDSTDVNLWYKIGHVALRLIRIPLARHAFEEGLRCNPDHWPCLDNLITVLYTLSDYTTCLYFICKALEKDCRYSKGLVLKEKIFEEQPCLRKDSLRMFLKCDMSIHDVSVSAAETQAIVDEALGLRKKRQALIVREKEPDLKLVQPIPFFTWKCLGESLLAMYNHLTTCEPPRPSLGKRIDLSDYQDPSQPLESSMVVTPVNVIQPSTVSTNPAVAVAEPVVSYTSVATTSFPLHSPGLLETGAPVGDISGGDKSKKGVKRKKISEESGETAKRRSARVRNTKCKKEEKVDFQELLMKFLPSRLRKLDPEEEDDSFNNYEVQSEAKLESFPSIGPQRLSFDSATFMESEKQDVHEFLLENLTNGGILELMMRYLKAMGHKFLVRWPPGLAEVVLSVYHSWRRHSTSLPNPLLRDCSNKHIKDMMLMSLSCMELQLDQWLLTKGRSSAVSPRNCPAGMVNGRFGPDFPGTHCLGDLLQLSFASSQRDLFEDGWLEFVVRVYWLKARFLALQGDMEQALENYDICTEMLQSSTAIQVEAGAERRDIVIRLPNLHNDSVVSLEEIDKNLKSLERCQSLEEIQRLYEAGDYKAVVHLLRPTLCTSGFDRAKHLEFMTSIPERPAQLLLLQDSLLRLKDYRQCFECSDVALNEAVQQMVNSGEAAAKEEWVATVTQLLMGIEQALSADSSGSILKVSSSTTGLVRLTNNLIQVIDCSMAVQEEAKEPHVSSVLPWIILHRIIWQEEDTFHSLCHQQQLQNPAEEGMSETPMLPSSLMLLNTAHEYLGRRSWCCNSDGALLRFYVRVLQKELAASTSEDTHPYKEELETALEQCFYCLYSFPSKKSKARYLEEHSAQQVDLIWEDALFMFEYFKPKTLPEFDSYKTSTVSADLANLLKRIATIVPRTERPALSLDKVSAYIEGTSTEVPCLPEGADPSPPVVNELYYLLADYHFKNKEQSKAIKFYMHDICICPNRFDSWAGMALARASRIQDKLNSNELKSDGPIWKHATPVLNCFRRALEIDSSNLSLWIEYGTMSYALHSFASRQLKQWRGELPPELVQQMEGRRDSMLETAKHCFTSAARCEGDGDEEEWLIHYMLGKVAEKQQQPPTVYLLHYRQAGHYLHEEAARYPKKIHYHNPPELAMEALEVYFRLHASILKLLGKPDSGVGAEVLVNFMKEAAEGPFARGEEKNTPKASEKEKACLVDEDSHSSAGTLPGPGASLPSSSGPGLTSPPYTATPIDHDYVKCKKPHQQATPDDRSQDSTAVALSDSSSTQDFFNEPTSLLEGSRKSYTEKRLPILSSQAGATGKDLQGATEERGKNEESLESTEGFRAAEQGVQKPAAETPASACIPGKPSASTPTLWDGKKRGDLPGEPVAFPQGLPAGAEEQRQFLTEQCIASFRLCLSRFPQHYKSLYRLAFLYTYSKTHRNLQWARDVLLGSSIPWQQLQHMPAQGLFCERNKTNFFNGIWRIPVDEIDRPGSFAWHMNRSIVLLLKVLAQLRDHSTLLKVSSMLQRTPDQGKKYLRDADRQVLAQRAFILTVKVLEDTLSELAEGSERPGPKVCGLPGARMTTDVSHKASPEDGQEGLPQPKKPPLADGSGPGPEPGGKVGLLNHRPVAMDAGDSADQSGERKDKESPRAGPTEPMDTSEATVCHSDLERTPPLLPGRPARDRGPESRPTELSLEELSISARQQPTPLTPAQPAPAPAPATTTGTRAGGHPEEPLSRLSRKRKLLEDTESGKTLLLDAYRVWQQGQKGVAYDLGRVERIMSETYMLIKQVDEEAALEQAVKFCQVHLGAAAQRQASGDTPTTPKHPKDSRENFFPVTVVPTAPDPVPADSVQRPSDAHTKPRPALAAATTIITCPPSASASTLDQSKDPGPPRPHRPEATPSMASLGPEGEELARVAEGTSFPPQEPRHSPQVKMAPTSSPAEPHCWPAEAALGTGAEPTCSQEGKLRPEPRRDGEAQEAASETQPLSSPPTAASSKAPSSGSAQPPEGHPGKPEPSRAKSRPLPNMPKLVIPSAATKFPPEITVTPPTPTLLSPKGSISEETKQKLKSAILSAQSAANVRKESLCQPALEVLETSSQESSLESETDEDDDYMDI

[3] = molecular target: the molecule itself; assay: SEC-MALS; HIRA(644–1017) purified in 500 mM NaCl

Binder	stoichiometry N [1]	binding result [2]	stoichiometry N [3]
recombinant human HIRA(661–1017) (domain or fragment, UniProt P54198 661-1017, looked up, Theoretical molecular weight of the homotrimer printed as 118,710 Da; also called HIRA trimer; not shown: GST, N-terminal, cleaved) SPAALTAEKEAMCLSAPALALKLPIPSPQRAFTLQVSSDPSMYIEVENEVTVVGGVKLSRLKCNREGKEWETVLTSRILTAAGSCDVVCVACEKRMLSVFSTCGRRLLSPILLPSPISTLHCTGSYVMALTAAATLSVWDVHRQVVVVKEESLHSILAGSDMTVSQILLTQHGIPVMNLSDGKAYCFNPSLSTWNLVSDKQDSLAQCADFRSSLPSQDAMLCSGPLAIIQGRTSNSGRQAARLFSVPHVVQQETTLAYLENQVAAALTLQSSHEYRHWLLVYARYLVNEGFEYRLREICKDLLGPVHYSTGSQWESTVVGLRKRELLKELLPVIGQNLRFQRLFTECQEQLDILRDK	3	binds	
recombinant HIRA(661–1017 + FRL870-871-874AAA) (domain or fragment, human, UniProt P54198 661-1017, looked up, not shown: GST, N-terminal, cleaved) SPAALTAEKEAMCLSAPALALKLPIPSPQRAFTLQVSSDPSMYIEVENEVTVVGGVKLSRLKCNREGKEWETVLTSRILTAAGSCDVVCVACEKRMLSVFSTCGRRLLSPILLPSPISTLHCTGSYVMALTAAATLSVWDVHRQVVVVKEESLHSILAGSDMTVSQILLTQHGIPVMNLSDGKAYCFNPSLSTWNLVSDKQDSLAQCADAASSAPSQDAMLCSGPLAIIQGRTSNSGRQAARLFSVPHVVQQETTLAYLENQVAAALTLQSSHEYRHWLLVYARYLVNEGFEYRLREICKDLLGPVHYSTGSQWESTVVGLRKRELLKELLPVIGQNLRFQRLFTECQEQLDILRDK		binds	
recombinant HIRA(661–1017) Δ873–904 (domain or fragment, human, UniProt P54198 661-1017, looked up, also called loop deletion mutant; not shown: GST, N-terminal, cleaved) SPAALTAEKEAMCLSAPALALKLPIPSPQRAFTLQVSSDPSMYIEVENEVTVVGGVKLSRLKCNREGKEWETVLTSRILTAAGSCDVVCVACEKRMLSVFSTCGRRLLSPILLPSPISTLHCTGSYVMALTAAATLSVWDVHRQVVVVKEESLHSILAGSDMTVSQILLTQHGIPVMNLSDGKAYCFNPSLSTWNLVSDKQDSLAQCADFRSSVPHVVQQETTLAYLENQVAAALTLQSSHEYRHWLLVYARYLVNEGFEYRLREICKDLLGPVHYSTGSQWESTVVGLRKRELLKELLPVIGQNLRFQRLFTECQEQLDILRDK	3	binds	
HIRA(644–1017) (domain or fragment, human, Cloned by NdeI/XhoI into pTXB1 (pYHD1); the forward primer has ATG before the first HIRA codon, so a start methionine may stand in front; A Se-Met labelled form was used for phasing only; Theoretical trimer weight printed as 125,815 Da; source: E. coli BL21(DE3), purified (chitin beads, on-column intein cleavage, Superdex 200); not shown: Intein (chitin beads), C-terminal, cleaved) GRPRKDSRLMPVSLSVQSPAALTAEKEAMCLSAPALALKLPIPSPQRAFTLQVSSDPSMYIEVENEVTVVGGVKLSRLKCNREGKEWETVLTSRILTAAGSCDVVCVACEKRMLSVFSTCGRRLLSPILLPSPISTLHCTGSYVMALTAAATLSVWDVHRQVVVVKEESLHSILAGSDMTVSQILLTQHGIPVMNLSDGKAYCFNPSLSTWNLVSDKQDSLAQCADFRSSLPSQDAMLCSGPLAIIQGRTSNSGRQAARLFSVPHVVQQETTLAYLENQVAAALTLQSSHEYRHWLLVYARYLVNEGFEYRLREICKDLLGPVHYSTGSQWESTVVGLRKRELLKELLPVIGQNLRFQRLFTECQEQLDILRDKLEGSS			3
